Test results taken from patent US20150110744A1 (INTER K, published 2015).

B1: RSKAKNPLYR peptide (β6 integrin derived) (peptide)
peptide: RSKAKNPLYR
B2: RVKVKVVVVR peptide (peptide)
peptide: RVKVKVVVVR
B3: RAKAKAAAAR peptide (peptide)
peptide: RAKAKAAAAR
B4: RAAKAARAAK peptide (peptide)
peptide: RAAKAARAAK

What follows are binders tested against Akt3 (PKB gamma) (human (printed as '(h)'), UniProt Q9Y243 1-479, limits assumed) (assay: cell-based or functional assay).
Akt3 (PKB gamma) (human (printed as '(h)'), UniProt Q9Y243 1-479, limits assumed), sequence (Q9Y243 whole entry): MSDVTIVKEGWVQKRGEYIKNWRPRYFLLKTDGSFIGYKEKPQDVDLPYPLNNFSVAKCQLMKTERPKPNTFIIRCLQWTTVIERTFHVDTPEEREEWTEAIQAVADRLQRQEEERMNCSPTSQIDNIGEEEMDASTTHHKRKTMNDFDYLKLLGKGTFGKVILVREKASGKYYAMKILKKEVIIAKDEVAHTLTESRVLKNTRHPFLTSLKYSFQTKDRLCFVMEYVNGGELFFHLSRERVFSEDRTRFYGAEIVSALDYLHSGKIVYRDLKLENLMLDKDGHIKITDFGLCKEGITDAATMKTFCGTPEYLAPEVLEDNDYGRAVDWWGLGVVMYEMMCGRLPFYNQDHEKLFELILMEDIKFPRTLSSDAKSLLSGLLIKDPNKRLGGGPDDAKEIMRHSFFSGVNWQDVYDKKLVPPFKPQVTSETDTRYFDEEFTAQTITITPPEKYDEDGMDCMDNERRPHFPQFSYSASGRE

Point of comparison: B2, “Inhibitory Activity (%), cell-free in vitro kinase assay, peptide 50 µM” value (“Inhibitory Activity (%), cell-free” for short) 93%. Against it:
- B1 — lower, 8%
- B3 — lower, 52%
- B4 — lower, 2%

Each binder was assayed against Akt2 (PKB beta) (human (printed as '(h)'), UniProt P31751 1-481, limits assumed) (assay: cell-based or functional assay).
Akt2 (PKB beta) (human (printed as '(h)'), UniProt P31751 1-481, limits assumed), sequence (P31751 whole entry): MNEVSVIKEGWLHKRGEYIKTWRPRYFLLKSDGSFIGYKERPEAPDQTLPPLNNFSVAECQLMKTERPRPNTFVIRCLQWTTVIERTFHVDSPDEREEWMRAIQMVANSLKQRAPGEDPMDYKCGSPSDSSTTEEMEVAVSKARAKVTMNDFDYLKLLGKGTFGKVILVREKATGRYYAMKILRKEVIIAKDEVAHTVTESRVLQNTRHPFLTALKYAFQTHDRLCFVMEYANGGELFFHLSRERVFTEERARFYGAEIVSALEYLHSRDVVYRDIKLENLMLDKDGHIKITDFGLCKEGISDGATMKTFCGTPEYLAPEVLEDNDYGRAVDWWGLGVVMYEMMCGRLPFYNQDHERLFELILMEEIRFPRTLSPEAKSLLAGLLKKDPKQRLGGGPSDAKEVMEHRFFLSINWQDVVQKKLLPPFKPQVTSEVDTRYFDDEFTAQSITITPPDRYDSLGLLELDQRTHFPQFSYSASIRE

Point of comparison: B3, “Inhibitory Activity (%), cell-free” value 0%. Against it:
- B1 — higher, 3%
- B2 — higher, 89%
- B4 — the same, 0%

Each binder was assayed against c-Src (h) (human (printed as '(h)'), UniProt P12931 1-536, limits assumed) (assay: cell-based or functional assay).

Point of comparison: B4, “Inhibitory Activity (%), cell-free” value 3%. Against it:
- B1 — higher, 53%
- B2 — higher, 43%
- B3 — higher, 27%
